According to patent publication US20160368995A1 (University of California, published 2016):

Tests used:
Assay in all cases: binding and/or signaling studies
CCR2 = target: T1, CCR2 (human, UniProt P41597-2 1-360)
T1 sequence: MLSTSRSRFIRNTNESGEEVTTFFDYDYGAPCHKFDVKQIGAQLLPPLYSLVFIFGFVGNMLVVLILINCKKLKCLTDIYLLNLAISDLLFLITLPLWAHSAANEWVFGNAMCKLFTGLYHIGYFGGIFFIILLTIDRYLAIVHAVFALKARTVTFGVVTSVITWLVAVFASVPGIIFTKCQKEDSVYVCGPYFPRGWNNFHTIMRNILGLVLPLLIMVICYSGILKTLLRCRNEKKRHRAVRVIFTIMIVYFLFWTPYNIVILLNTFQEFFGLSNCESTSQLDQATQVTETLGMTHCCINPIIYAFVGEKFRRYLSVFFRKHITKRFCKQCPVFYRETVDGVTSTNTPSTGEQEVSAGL
Description: (§1) Radioligand displacement studies of various chemotaxis receptors were carried out. For the radioligand binding assay, membranes from HEK293T cells transiently expressing the respective chemokine receptors were incubated with ˜[…] ¹²⁵I-chemokine and increasing concentrations of chemokine (control) or CXCL17. Cells were incubated for 3 h at 4° C. and washed twice with binding buffer containing 0.5 M NaCl. After harvesting the samples with lysis buffer, the remaining cell-bound radioactivity was counted.

CXCR3 = target: T2, CXCR3 (UniProt P49682 1-368, limits assumed)
T2 construct: whole, on cells
T2 sequence (looked up): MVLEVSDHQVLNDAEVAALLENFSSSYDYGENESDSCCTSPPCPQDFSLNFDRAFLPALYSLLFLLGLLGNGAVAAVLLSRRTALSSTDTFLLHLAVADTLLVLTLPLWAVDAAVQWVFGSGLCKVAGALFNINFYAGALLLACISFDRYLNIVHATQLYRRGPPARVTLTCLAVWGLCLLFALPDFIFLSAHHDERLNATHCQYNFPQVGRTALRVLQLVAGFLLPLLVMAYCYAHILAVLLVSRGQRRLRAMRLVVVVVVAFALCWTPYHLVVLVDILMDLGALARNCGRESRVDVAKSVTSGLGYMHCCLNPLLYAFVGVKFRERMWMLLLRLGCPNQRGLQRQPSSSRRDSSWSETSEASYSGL
Description: as §1

CXCR4 = target: T3, CXCR4 (human, UniProt P61073-2 1-356)
T3 construct: The construct used is not described
Description: as §1

CXCR7 = target: T4, CXCR7 (human, UniProt P25106 1-362)
T4 construct: Tested on CXCR7 expressing cells
Description: as §1

CCX-CKR = target: T5, CCX-CKR (UniProt Q9NPB9 1-350, limits assumed)
T5 construct: whole, on cells
T5 sequence (looked up): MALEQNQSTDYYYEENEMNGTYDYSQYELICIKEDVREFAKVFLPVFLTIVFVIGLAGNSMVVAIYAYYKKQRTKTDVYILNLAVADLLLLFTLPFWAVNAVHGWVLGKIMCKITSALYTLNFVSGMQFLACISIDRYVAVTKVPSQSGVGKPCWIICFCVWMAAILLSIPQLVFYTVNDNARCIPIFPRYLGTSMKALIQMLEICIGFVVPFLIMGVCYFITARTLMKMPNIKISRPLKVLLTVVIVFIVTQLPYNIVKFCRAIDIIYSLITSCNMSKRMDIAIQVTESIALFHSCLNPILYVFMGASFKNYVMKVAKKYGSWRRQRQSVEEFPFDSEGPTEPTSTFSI
Description: as §1

Measured: binding result

T4 sequence (P25106 whole entry): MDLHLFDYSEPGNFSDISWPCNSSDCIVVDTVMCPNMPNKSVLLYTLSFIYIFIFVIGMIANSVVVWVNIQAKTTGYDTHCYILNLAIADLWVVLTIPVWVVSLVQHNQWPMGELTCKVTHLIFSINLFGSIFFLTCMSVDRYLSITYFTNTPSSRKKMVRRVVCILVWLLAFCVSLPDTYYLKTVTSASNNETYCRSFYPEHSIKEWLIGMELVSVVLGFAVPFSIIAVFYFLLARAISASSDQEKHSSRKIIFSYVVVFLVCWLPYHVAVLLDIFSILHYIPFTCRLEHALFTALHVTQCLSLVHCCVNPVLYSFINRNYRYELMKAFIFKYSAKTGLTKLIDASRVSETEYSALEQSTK
T3 sequence (P61073 other isoform, or with tags, fused parts or gaps): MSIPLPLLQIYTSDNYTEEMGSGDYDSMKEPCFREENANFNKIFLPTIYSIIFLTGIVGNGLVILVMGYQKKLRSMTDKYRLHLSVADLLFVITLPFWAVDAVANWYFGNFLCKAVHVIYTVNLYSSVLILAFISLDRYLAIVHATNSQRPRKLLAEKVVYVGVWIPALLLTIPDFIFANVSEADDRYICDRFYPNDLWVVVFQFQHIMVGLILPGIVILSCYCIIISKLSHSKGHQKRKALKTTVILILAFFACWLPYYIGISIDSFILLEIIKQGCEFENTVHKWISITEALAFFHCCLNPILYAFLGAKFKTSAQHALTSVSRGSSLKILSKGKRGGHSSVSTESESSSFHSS

B1: recombinant human CXCL17 (chemokine (C-X-C motif) ligand 17) (ligand)
chain: SSLNPGVARGHRDRGQASRRWLQEGGQECECKDWFLRAPRRKFMTVSGLPKKQCPCDHFKGNVKKTRHQRHHRKPNKHSRACQQFLKQCQLRSFALPL
notes: Bought recombinant protein (R&D Systems); also called human recombinant CXCL17
no binding: all assays above
